Target: CD20 (human) (UniProt P11836)
Experiment: cell-based or functional assay

Sequence of UniProt P11836 (P11836 whole entry): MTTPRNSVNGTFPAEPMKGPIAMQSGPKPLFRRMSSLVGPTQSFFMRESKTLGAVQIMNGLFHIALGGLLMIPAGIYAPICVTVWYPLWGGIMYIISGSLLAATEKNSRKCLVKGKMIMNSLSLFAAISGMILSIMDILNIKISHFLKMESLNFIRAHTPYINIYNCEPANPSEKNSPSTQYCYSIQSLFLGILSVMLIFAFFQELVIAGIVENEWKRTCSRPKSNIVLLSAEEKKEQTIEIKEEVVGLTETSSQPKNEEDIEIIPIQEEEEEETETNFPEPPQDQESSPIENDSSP

Substance	Mean normalised apoptosis % (Ramos cells), with cross-linking mAb [%]	Mean normalised apoptosis % (Ramos cells), without cross-linking mAb [%]
mAb1 IgG1 mutant H224P (antibody)	322	106
mAb1 IgG1 (equivalent to rituximab), unmodified IgG1 control (antibody)	278	
mAb1 IgG1 mutant G137E-G138S (antibody)	332	78
mAb1 IgG1 mutant C220G (antibody)	359	106
